Test results published in the supplement of paper PMC9732359.
± gives the uncertainty stated by the source.

Assay: protein stability index of a GFP-peptide fusion (yeast GPS) (PSI 1-4); higher = more stable; sorted into four equal gates, so the index is relative within each strain
Conditions: san1∆
How it was run: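 Sequencing reads from sorted gates were used to score each peptide. The library consisted of tiled 17-residue yeast protein peptides fused downstream of GFP on a Cherry-expressing plasmid, pooled and carried in yeast. Mid-log cultures in leucine-free medium were split into four equal gates by GFP/Cherry ratio, and each gate's plasmids were PCR-amplified and Illumina-sequenced. The protein stability index adds up, over all gates, the read frequency multiplied by the gate number.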

QGDVEQIAAQSPVELSR [SMC1] showed a protein stability index of 3.08 ± 0.063.

Same assay, conditions: ubr1∆

First: PEQVYSLLLTNVIITGS [ARP7]
Second: PEQYSDILLNERVWNIC [AAR2]
The protein stability index of the first is lower: 1.23 ± 0.046 for the first, 2.99 ± 0.18 for the second.

Compared with PERFMVFQLPTRLPAFE [RPC53], PEYFESPLQSSKSKQSF [YMR129W/POM152] is higher in protein stability index: 2.79 ± 0.058 for the first, 2.96 ± 0.076 for the second.

Going from PEYLAMYGLTMEWPKDM [ITC1] to PFFKYIDDANVTRKQED [RPC37], the protein stability index rises from 2.14 ± 0.072 to 2.52 ± 0.061.

First: PFILEYDLMAPNGHIST [YMR129W/POM152]
Second: PFKGEVVDGTVVSCSQH [RPB7]
The protein stability index of the first is higher: 3.05 ± 0.097 for the first, 2.56 ± 0.12 for the second.

PFSYLIDETMMDKPLNF [SRB5] and PFVPVLDRRFEIFFKKD [FAS1] are within error of each other in protein stability index: 2.97 ± 0.054 for the first, 2.86 ± 0.057 for the second.

PFYGSYTETDPAKVAEE [SRP54] and PGEYITTIKAIFDGNYG [YMR129W/POM152] are within error of each other in protein stability index: 2.82 ± 0.099 for the first, 2.95 ± 0.07 for the second.

First: PGSVNSAAKYKDMKLLR [NUT1]
Second: PGVDVSAEEQLRKIDML [SRB7]
The protein stability index of the first is higher: 2.96 ± 0.085 for the first, 2.67 ± 0.043 for the second.

Going from PGVLPVGIDTHTATDIY [SNF2] to PGVRVSGEDVIIGKTTP [RPB2], the protein stability index rises from 2.69 ± 0.04 to 3.45 ± 0.073.

Going from PGYVDIVKTSSGNEMPP [RPS19A] to PHANPITHAHSLSNPNS [PGD1], the protein stability index falls from 3.11 ± 0.088 to 2.94 ± 0.03.

Compared with PHTTLVNECIAQSHQRF [CDC53], PIGEAGDFGGWFCPCHG [RIP1] is higher in protein stability index: 2.98 ± 0.039 for the first, 3.18 ± 0.075 for the second.

First: PIIIYGTENTERPPLLP [YOR098C/NUP1]
Second: PIPIAVLDSYTPSTNEP [FAS1]
The protein stability index of the first is higher: 2.94 ± 0.048 for the first, 2.85 ± 0.041 for the second.

PIYTGDGWVKLTYKSEL [YMR153W/NUP53] and PKAISNFLIKLSELSPG [YCS4] are within error of each other in protein stability index: 1.98 ± 0.049 for the first, 2.01 ± 0.056 for the second.

Compared with PKFISEALAFTSLVANE [YDL116W/NUP84], PKKYKENNTDSARKELE [SMC1] is higher in protein stability index: 1.11 ± 0.17 for the first, 3.31 ± 0.057 for the second.

Compared with PKPDKPSGRTRGRSVMK [ESC2], PKQSDEYLKRVSVPVSG [SIR3] is lower in protein stability index: 3.7 ± 0.13 for the first, 2.72 ± 0.14 for the second.

PKTGKVERSEAISKKDL [SEC65] and PKVPEDIYKSHLDNSKS [RPN1] are within error of each other in protein stability index: 3.23 ± 0.073 for the first, 3.24 ± 0.17 for the second.

PLAKIYLEENKSDSQYR [MED1] and PLDTIETELPTLSLPDS [SMC1] are within error of each other in protein stability index: 3.16 ± 0.06 for the first, 3.09 ± 0.089 for the second.

First: PLGKILLKGDNITLITS [SME1]
Second: PLINRLKHYNGYDINYI [SWI1]
The protein stability index of the first is higher: 3.07 ± 0.061 for the first, 2.69 ± 0.043 for the second.

Compared with PLKYTKLIAAAEDGSRS [SNF6], PLLTKRKDLRDKLICSI [DIS3] is higher in protein stability index: 1.57 ± 0.18 for the first, 3.06 ± 0.13 for the second.

Compared with PLLVPGMTPCTVSPDFV [FAS1], PMDAYLKLNHIIANINS [SNU114] is higher in protein stability index: 1.64 ± 0.065 for the first, 2.4 ± 0.097 for the second.

Compared with PMTVKLVQLPKSAMDTF [POP3], PNEFMQFKSKEVEKAHP [PRP8] is higher in protein stability index: 2.88 ± 0.053 for the first, 3.25 ± 0.091 for the second.

First: PNEHPGAKYVIRDSGDR [RPO21]
Second: PNIMLIFGSGFGSADDT [FAS1]
The protein stability index of the first is higher: 3.03 ± 0.069 for the first, 2.24 ± 0.065 for the second.

Going from PNRLVKELQYDNEQNLE [PRE2] to PNVCNMKQYRDFLGVAS [PRP28], the protein stability index falls from 3.08 ± 0.073 to 1.99 ± 0.072.

First: PPDSDSSISVMGENEKP [RPT3]
Second: PPKPRKVLQLLRLTRIN [RPL7A]
The protein stability index of the first is higher: 1.77 ± 0.2 for the first, 1.09 ± 0.061 for the second.

First: PPSSFGRSHTRNSTRSS [REC8]
Second: PQEPKHIQEEEEQDVDM [RPC19]
The protein stability index of the first is lower: 2.96 ± 0.17 for the first, 3.28 ± 0.056 for the second.

PQFDSTQPKSSSSMDMQ [SSN3] and PQINILQPIKGESARRF [RPC40] are within error of each other in protein stability index: 3.02 ± 0.044 for the first, 2.88 ± 0.12 for the second.

Going from PQKPVPLNVLQDQYKEG [SNF2] to PQTPLVEPVTERTKLQE [SNU114], the protein stability index rises from 2.94 ± 0.044 to 3.31 ± 0.13.

First: PQVLINRDPVKHAEFDL [SIR2]
Second: PQYINYSSIPSLQDSII [SSN2]
The protein stability index of the first is lower: 2.79 ± 0.1 for the first, 3.16 ± 0.086 for the second.

Going from PRALQPSQFGMLCTADT [RET1] to PREDKENNRLLFECRTC [RPB9], the protein stability index rises from 2.18 ± 0.051 to 3.29 ± 0.16.

First: PRQRMEEVVSNDEGVWD [PRP8]
Second: PSCNNMLLITSGDSGVY [RPC11]
The protein stability index of the first is higher: 3.06 ± 0.048 for the first, 2.24 ± 0.17 for the second.

Compared with PSDWQRNSFIRDMIMKR [ITC1], PSEILHLILDKLNQKYD [GRR1] is lower in protein stability index: 2.89 ± 0.047 for the first, 2.46 ± 0.061 for the second.

Compared with PSRQFDHYESNQLVAKL [SRB8], PSTAIHTSPHQPSDVKP [SIR4] is lower in protein stability index: 3.17 ± 0.041 for the first, 2.36 ± 0.034 for the second.

Compared with PSYYGVRDTSPHGISVF [BRR2], PTESYLQYIIHDTLNNE [BRR2] is higher in protein stability index: 1.94 ± 0.045 for the first, 2.26 ± 0.065 for the second.

Going from PTFSTHAQLLLSDRITG [PRP8] to PTKLLVSEVAKIMQEAT [PRE8], the protein stability index rises from 1.95 ± 0.031 to 2.73 ± 0.062.

Going from PTLPRSDRECPKCHSRE [RPB9] to PTSPNYSPTSPSYSPTS [RPO21], the protein stability index rises from 2.84 ± 0.043 to 2.969 ± 0.026.

First: PVGSYEREQCRAGGAAA [PRE7]
Second: PWFWLLPLWHLLNRIPR [POP1]
The protein stability index of the first is higher: 2.78 ± 0.097 for the first, 1.26 ± 0.046 for the second.

Going from PYFPGGSIAMARVLFDD [CYT1] to PYGVYHPPFIKYACLAI [SIN4], the protein stability index falls from 2.69 ± 0.093 to 1.17 ± 0.034.

Compared with PYLVANVVEVMDMNEIE [RPT5], QAKLKKNVETLEEKILA [SMC4] is higher in protein stability index: 2.32 ± 0.069 for the first, 3.13 ± 0.066 for the second.

QAPTTGFSFGSQLGGNK [YJL041W/NSP1] and QAQAQAQAQAQAQAQAH [GAL11] are within error of each other in protein stability index: 3.17 ± 0.036 for the first, 3.1 ± 0.1 for the second.

First: QAQAQVYAQQSTVQTPI [PGD1]
Second: QASDPSKKKKNIKKKDT [RPC53]
The protein stability index of the first is lower: 2.95 ± 0.059 for the first, 3.3 ± 0.21 for the second.

Compared with QCPVKSAEDQLYAITFR [QCR2], QCYKIYDLVILKSGLPL [YMR129W/POM152] is lower in protein stability index: 3.09 ± 0.16 for the first, 1.29 ± 0.059 for the second.

First: QDENIGLSMLAKLKELA [RPC31]
Second: QDIYYLAQTLKLWRKIA [RRI2]
The protein stability index of the first is higher: 3.16 ± 0.053 for the first, 1.63 ± 0.047 for the second.

First: QDLILDLKKKLNSLKDE [SMC4]
Second: QDREITNWARTTFRNEY [MED8]
The protein stability index of the first is lower: 1.57 ± 0.062 for the first, 2.51 ± 0.096 for the second.

First: QEELKKRQELEEASQQQ [MED2]
Second: QEGLAKFGACVAQGIMN [RPN2]
The protein stability index of the first is higher: 3.29 ± 0.046 for the first, 1.58 ± 0.051 for the second.

QEKMDPNNSRDDYKDLT [IRR1] and QELAKSIRSRRPYQVNV [PRE1] are within error of each other in protein stability index: 3.25 ± 0.076 for the first, 3.16 ± 0.078 for the second.

First: QELCYPDENHDNTSHDE [BRN1]
Second: QELLNAETLCFTVNVLY [RPN3]
The protein stability index of the first is higher: 3.35 ± 0.056 for the first, 2.87 ± 0.062 for the second.

Compared with QEMIEISNVIKPNQTIM [SRP54], QEQLKQMDQQLQYTALT [ARP7] is higher in protein stability index: 1.96 ± 0.1 for the first, 3 ± 0.18 for the second.

Compared with QEQVYPDFKPWEHTAAE [SRB8], QERKDFLKKVMDTIQDK [ECM29] is higher in protein stability index: 2.93 ± 0.11 for the first, 3.17 ± 0.072 for the second.

Going from QETCDKLRARLVEYGFD [SMC2] to QEWLANLKLISVSLVDE [SIR4], the protein stability index rises from 1.57 ± 0.034 to 1.67 ± 0.039.

Going from QFCGIKERNSLKKLKAM [BRR2] to QFDIQSPLYMDTETFDT [YML103C/NUP188], the protein stability index rises from 2.99 ± 0.11 to 3.28 ± 0.06.

Compared with QFLQLDNDGFSFLMRQF [ECM29], QFSYVDSSMTTVQENEL [AAR2] is higher in protein stability index: 1.83 ± 0.051 for the first, 2.95 ± 0.052 for the second.

First: QFTKVIDEPIKSIMDGI [FAS1]
Second: QFVDMVLPNTALKTSIQ [FAS1]
The protein stability index of the first is higher: 1.49 ± 0.072 for the first, 1.28 ± 0.039 for the second.

In the case of QGDVEQIAAQSPVELSR [SMC1], the protein stability index is reported as 2.83 ± 0.073.
